Target: 6XHIS-tagged Dbp2 (S. cerevisiae, UniProt P24783 1-546)
Experiment: pull-down

Sequence of 6XHIS-tagged Dbp2 (P24783 whole entry): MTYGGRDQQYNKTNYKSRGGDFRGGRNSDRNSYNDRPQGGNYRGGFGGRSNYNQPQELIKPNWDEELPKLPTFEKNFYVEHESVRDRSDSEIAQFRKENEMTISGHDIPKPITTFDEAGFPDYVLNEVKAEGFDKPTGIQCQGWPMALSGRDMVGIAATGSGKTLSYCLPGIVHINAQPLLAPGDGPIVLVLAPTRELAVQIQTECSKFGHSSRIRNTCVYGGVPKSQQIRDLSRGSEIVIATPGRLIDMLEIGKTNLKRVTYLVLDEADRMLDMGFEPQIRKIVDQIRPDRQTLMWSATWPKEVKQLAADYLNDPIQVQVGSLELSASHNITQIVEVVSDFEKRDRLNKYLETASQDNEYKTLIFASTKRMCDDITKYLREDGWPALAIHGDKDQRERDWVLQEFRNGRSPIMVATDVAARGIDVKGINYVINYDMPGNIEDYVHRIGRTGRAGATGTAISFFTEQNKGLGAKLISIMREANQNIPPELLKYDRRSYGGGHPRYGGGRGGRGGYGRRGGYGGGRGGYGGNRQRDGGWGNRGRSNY

B1: GST-tagged Yra1 (full length) (natural protein, S. cerevisiae, UniProt Q12159 1-226, looked up)
chain: MSANLDKSLDEIIGSNKAGSNRARVGGTRGNGPRRVGKQVGSQRRSLPNRRGPIRKNTRAPPNAVARVAKLLDTTREVKVNVEGLPRDIKQDAVREFFASQVGGVQRVLLSYNERGQSTGMANITFKNGELARRAVERFNGSPIDGGRSRLRLNLIVDPNQRPVKSLADRIKAMPQKGGNAPRPVKRGPNRKAAMAKSQNKPKREKPAKKSLEDLDKEMADYFEKK
B1: binds.

B2: GST-Yra1 C (domain or fragment, S. cerevisiae, UniProt Q12159 124-226, looked up)
chain: ITFKNGELARRAVERFNGSPIDGGRSRLRLNLIVDPNQRPVKSLADRIKAMPQKGGNAPRPVKRGPNRKAAMAKSQNKPKREKPAKKSLEDLDKEMADYFEKK
B2: binds.

From article PMC3795964 (Journal of molecular biology, 2013)
